Residue numbers refer to the chain shown, from its start. Names and notes keep the numbering of the source.
Columns and labels:
[1] = molecular target: T1, Pyrococcus horikoshii coenzyme A-disulfide reductase (phCoADR) (Pyrococcus horikoshii, UniProt O58308, Y65A/Y66A/P67G/H367G); experiment: X-ray crystal structure, […] Å; type: binding; details: tightly bound CoA in substrate channel; mixed disulfide with C48 in oxidized enzyme (covalent)
T1 construct: gene PH0572; recombinant in E. coli BL21(DE3); wild type from pET24d; quad mutant codon-optimized gene in pET21b+ with C-terminal His tag; FAD-containing homodimer
T1 sequence (O58308 whole entry Y65A/Y66A/P67G/H367G): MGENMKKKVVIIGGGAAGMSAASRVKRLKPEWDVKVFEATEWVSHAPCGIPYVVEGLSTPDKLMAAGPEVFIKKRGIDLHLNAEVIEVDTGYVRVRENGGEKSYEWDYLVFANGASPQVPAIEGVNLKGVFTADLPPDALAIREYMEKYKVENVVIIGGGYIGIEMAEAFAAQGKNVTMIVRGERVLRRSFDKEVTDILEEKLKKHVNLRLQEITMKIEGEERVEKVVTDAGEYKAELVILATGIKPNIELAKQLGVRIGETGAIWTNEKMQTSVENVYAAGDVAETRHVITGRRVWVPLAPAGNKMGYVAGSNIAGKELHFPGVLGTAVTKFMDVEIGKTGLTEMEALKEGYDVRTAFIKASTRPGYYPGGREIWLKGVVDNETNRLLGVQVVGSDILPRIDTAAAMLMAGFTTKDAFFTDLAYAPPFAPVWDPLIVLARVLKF

[2] = molecular target: T2, Pyrococcus horikoshii coenzyme A-disulfide reductase (phCoADR) (Pyrococcus horikoshii, UniProt O58308, C48S/Y65A/Y66A/P67G/H367G); experiment: anaerobic NADH titration, UV-visible spectra; type: biochemical; details: 50 mM potassium phosphate, pH 7.5, room temperature
T2 construct: gene PH0572; recombinant in E. coli BL21(DE3); wild type from pET24d; quad mutant codon-optimized gene in pET21b+ with C-terminal His tag; FAD-containing homodimer
T2 sequence (O58308 whole entry C48S/Y65A/Y66A/P67G/H367G): as the sequence (O58308 whole entry Y65A/Y66A/P67G/H367G) above, with C48S counted along it

purified protein [3] = substrate: CC(C)(COP(=O)(O)OP(=O)(O)OC[C@H]1O[C@@H](n2cnc3c(N)ncnc32)[C@H](O)[C@@H]1OP(=O)(O)O)[C@@H](O)C(=O)NCCC(=O)NCCSSCCNC(=O)CCNC(=O)[C@H](O)C(C)(C)COP(=O)(O)OP(=O)(O)OC[C@H]1O[C@@H](n2cnc3c(N)ncnc32)[C@H](O)[C@@H]1OP(=O)(O)O; experiment: purified protein; type: biochemical, Pyrococcus horikoshii; details: 100 μM NADPH, 75 °C, 50 mM potassium phosphate, pH 7.5
purified protein [4] = substrate: NC(=O)C1=CN([C@@H]2O[C@H](COP(=O)(O)OP(=O)(O)OC[C@H]3O[C@@H](n4cnc5c(N)ncnc54)[C@H](O)[C@@H]3O)[C@@H](O)[C@H]2O)C=CC1; experiment: purified protein; type: biochemical, Pyrococcus horikoshii; details: 100 μM CoA disulfide, 75 °C, 50 mM potassium phosphate, pH 7.5
purified protein [5] = substrate: NC(=O)C1=CN([C@@H]2O[C@H](COP(=O)(O)OP(=O)(O)OC[C@H]3O[C@@H](n4cnc5c(N)ncnc54)[C@H](OP(=O)(O)O)[C@@H]3O)[C@@H](O)[C@H]2O)C=CC1; experiment: purified protein; type: biochemical, Pyrococcus horikoshii; details: 100 μM CoA disulfide, 75 °C, 50 mM potassium phosphate, pH 7.5

Question: For CC(C)(COP(=O)(O)OP(=O)(O)OC[C@H]1O[C@@H](n2cnc3c(N)ncnc32)[C@H](O)[C@@H]1OP(=O)(O)O)[C@@H](O)C(=O)NCCC(=O)NCCS [CoA], which “X-ray crystal structure, 3.6 Å” value [1] is on record?
Answer: The value was “CoA is depicted as sticks where carbon is green, nitrogen blue, oxygen red”.

Question: For NC(=O)C1=CN([C@@H]2O[C@H](COP(=O)(O)OP(=O)(O)OC[C@H]3O[C@@H](n4cnc5c(N)ncnc54)[C@H](O)[C@@H]3O)[C@@H](O)[C@H]2O)C=CC1 [NADH], which “anaerobic NADH titration, UV-visible spectra” value [2] is on record?
Answer: The value was “Anaerobic titration of the quad‐C48S mutant showed immediate reduction of FAD”.

B1: Pyrococcus horikoshii coenzyme A-disulfide reductase (phCoADR) (Pyrococcus horikoshii OT3) (protein)
chain: MGENMKKKVVIIGGGAAGMSAASRVKRLKPEWDVKVFEATEWVSHAPCGIPYVVEGLSTPDKLMYYPPEVFIKKRGIDLHLNAEVIEVDTGYVRVRENGGEKSYEWDYLVFANGASPQVPAIEGVNLKGVFTADLPPDALAIREYMEKYKVENVVIIGGGYIGIEMAEAFAAQGKNVTMIVRGERVLRRSFDKEVTDILEEKLKKHVNLRLQEITMKIEGEERVEKVVTDAGEYKAELVILATGIKPNIELAKQLGVRIGETGAIWTNEKMQTSVENVYAAGDVAETRHVITGRRVWVPLAPAGNKMGYVAGSNIAGKELHFPGVLGTAVTKFMDVEIGKTGLTEMEALKEGYDVRTAFIKASTRPHYYPGGREIWLKGVVDNETNRLLGVQVVGSDILPRIDTAAAMLMAGFTTKDAFFTDLAYAPPFAPVWDPLIVLARVLKF
notes: recombinant in E. coli BL21(DE3); wild type from pET24d; quad mutant codon-optimized gene in pET21b+ with C-terminal His tag; FAD-containing homodimer
Question: With B1 as the molecule, how does the Km (purified protein [3]) read?
Answer: Its Km is 52 ± 1 µM.

Question: And the kcat (purified protein [3])?
Answer: The kcat was 4.4 ± 1.3 s⁻¹.

Question: What about the Km (purified protein [4]) of the same molecule?
Answer: Its Km is 73 ± 12 µM.

Question: And the kcat (purified protein [4])?
Answer: Its kcat is 2.3 ± 0.3 s⁻¹.

Question: What about the kcat (purified protein [5]) of the same molecule?
Answer: Its kcat is 5.8 ± 0.2 s⁻¹.

B2: Pyrococcus horikoshii coenzyme A-disulfide reductase (phCoADR) (Pyrococcus horikoshii OT3; H367G/P67G/Y65A/Y66A) (protein)
chain: B1 chain with Y65A, Y66A, P67G, H367G
notes: as for B1
Question: For B2, which Km (purified protein [3]) is on record?
Answer: The Km was 57.0 ± 6.4 µM.

Question: What about the kcat (purified protein [3]) of the same molecule?
Answer: The kcat was 18.8 ± 2.8 s⁻¹.

Question: What about the Km (purified protein [4]) of the same molecule?
Answer: Its Km is 75 ± 6 µM.

Question: What about the kcat (purified protein [4]) of the same molecule?
Answer: Its kcat is 8.1 ± 1.4 s⁻¹.

Question: And the Km (purified protein [5])?
Answer: Its Km is 16.4 ± 4.9 µM.

Question: What about the kcat (purified protein [5]) of the same molecule?
Answer: The kcat was 21.6 ± 2.3 s⁻¹.

— publication PMC6026696, “A broader active site in Pyrococcus horikoshii CoA disulfide reductase accommodates larger substrates and reveals evidence of subunit asymmetry” (FEBS Open Bio, 2018)
